T1: full-length human growth hormone receptor (hGHR) (human, UniProt P10912 19-638)
T1 sequence (looked up): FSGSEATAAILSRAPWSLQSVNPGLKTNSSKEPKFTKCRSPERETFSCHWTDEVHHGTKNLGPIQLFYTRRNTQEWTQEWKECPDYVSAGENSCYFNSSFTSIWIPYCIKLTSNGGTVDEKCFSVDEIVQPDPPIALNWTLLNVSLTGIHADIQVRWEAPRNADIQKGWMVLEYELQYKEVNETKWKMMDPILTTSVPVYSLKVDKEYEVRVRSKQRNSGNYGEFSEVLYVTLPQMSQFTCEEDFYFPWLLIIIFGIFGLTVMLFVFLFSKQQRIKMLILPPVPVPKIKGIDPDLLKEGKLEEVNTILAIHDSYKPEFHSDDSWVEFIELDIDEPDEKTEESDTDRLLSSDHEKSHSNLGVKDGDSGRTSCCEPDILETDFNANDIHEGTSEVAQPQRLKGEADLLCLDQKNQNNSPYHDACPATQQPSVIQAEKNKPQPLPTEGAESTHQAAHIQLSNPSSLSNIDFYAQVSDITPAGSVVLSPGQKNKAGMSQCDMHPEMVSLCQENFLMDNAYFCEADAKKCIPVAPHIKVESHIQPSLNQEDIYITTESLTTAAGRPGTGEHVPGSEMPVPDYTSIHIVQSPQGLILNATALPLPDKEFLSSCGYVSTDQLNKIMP


Molecular target: T1, full-length human growth hormone …
Assay: cell-based or functional assay

| Binder | ED50, cell proliferation (MTT assay) of FDC-P1 cells transfected with hGHR |
| --- | --- |
| GHA protein mutant b (A13V, T27V, S79A, V90I, G161M, S184A) (ligand) FPTIPLSRLFDNVMLRAHRLHQLAFDVYQEFEEAYIPKEQKYSFLQNPQTSLCFSESIPTPSNREETQQKSNLELLRIALLLIQSWLEPIQFLRSVFANSLVYGASDSNVYDLLKDLEEGIQTLMGRLEDGSPRTGQIFKQTYSKFDTNSHNDDALLKNYMLLYCFRKDMDKVETFLRIVQCRAVEGSCGF | 320 |
| GHA protein mutant f (A13V, T27V, Y28F, F54Y, S55A, S79A, S85A, V90I, G161M, S184A) (ligand) FPTIPLSRLFDNVMLRAHRLHQLAFDVFQEFEEAYIPKEQKYSFLQNPQTSLCYAESIPTPSNREETQQKSNLELLRIALLLIQAWLEPIQFLRSVFANSLVYGASDSNVYDLLKDLEEGIQTLMGRLEDGSPRTGQIFKQTYSKFDTNSHNDDALLKNYMLLYCFRKDMDKVETFLRIVQCRAVEGSCGF | 230 |
| GHA protein mutant d (A13V, T27V, S55A, S79A, S85A, V90I, G161M, S184A) (ligand) FPTIPLSRLFDNVMLRAHRLHQLAFDVYQEFEEAYIPKEQKYSFLQNPQTSLCFAESIPTPSNREETQQKSNLELLRIALLLIQAWLEPIQFLRSVFANSLVYGASDSNVYDLLKDLEEGIQTLMGRLEDGSPRTGQIFKQTYSKFDTNSHNDDALLKNYMLLYCFRKDMDKVETFLRIVQCRAVEGSCGF | 260 |

Source: US6946265 (Xencor, dated 2005)
